Reference: FireProtDB (doi:10.1016/j.bpc.2008.09.020)

Settings: Pseudomonas aeruginosa (strain ATCC 15692 / DSM 22644 / CIP 104116 / JCM 14847 / LMG 12228 / 1C / PRS 101 / PAO1), 25 °C, GdnHCl, CD, Sodium acetate 20 mM, whole UniProt chain shown

B1: Cytochrome c-551 wild type, P00099 (protein)
chain: MKPYALLSLLATGTLLAQGAWAEDPEVLFKNKGCVACHAIDTKMVGPAYKDVAAKFAGQAGAEAELAQRIKNGSQGVWGPIPMPPNAVSDDEAQTLAKWVLSQK
- denaturant m value (pH 3.6): 2.88 kcal/mol/M
- denaturant midpoint (higher = more stable) (pH 3.6): 1.44 M
- unfolding free energy (pH 3.6): 4.14 kcal/mol
- denaturant m value (pH 5): 2.64 kcal/mol/M
- denaturant midpoint (higher = more stable) (pH 5): 2.06 M
- unfolding free energy (pH 5): 5.44 kcal/mol
